Measurements taken from the RNAGym collection of RNA variant scans (doi:10.1073/pnas.2313332121).
Variants at the floor of the assay were thinned out.

B1: TPR 5TU (parent)
chain: GGAUCUUCUCGAUCUAACAAAAAAGACAAAUCUGCCACAAAGCUUGAGAGCAUCUUCGGAUGCAGAGGCGGCAGCCUUCGGUGGCGCGAUAGCGCCAACGUUCUCAACUAUGACACGCAAAACGCGUGCUCCGUUGAAUGGAGUUUAUCAUG

Variants of: B1
Test: polymerase ribozyme fitness, log enrichment relative to wild type (log ratio); higher = more active; in vitro selection for triplet polymerase activity
Method in brief: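 Both subunits of a heterodimeric triplet polymerase ribozyme were given their own mutant library, built by PCR and transcribed. Each library was annealed with a biotinylated primer, the partner subunit and triplets, incubated frozen at −7 °C, and its extended constructs gel-excised, captured on streptavidin beads and amplified by RT-PCR, all in one round done in triplicate. Fitness is the logarithm of genotype enrichment relative to wild-type enrichment, with replicates averaged by inverse-variance weighting. That logarithm is base 2, and Illumina-sequenced genotypes needed ≥10 input reads and ≥1 read per output.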

GGAUCUUGUCGAUCUAACAAAAACGACAAAUCUGCCACAAAGCUUGAGAGCAUCUUCGGAUGCAUAGGCGGCAGCCUUCGGUGGCGAGAUAGCGUCAACGUUCUGAACUAUGACACGCAAAACGCGUGCUCCGUUGAAUGGAGUUUAUCAUG [C8G A24C G65U C87A C95U C105G] and GGAUCUUGUCGAUCUAACAAAUAAGACAAAUCUGGCACAAAGCUUGAGAGCAUCUUCGGAUGCAGAGGGCGCAGCCUUCGGUGGCGCGAUAACGCCAACGUUCUCAACUAUGACACGCAAAACGCGUGCUCCGUUGAAUGGAGUUUAUCAUG [C8G A22U C35G C69G G70C G92A] cannot be ordered by “polymerase ribozyme fitness (log ratio)” value: ≤ -4.2 for the first, ≤ -4.2 for the second.

First: GGAUCUUAUCGAUCUAACAAAAAAGACAAAUCUGCCACAAAGCUUGAGAGCAUCUUCGGAUGCAGAGGCGGCAGCCUUCGGUGGCGCGAUAGCGCCAACGUUCUCAACUAUGACACGCAAAACGCGUGCUCCGUUAAAUGGAGUUUAUCAUG [C8A G136A]
Second: GGAUCUUAGCGCUCUAACAAAAAAGACAUUUCUGCCACAAAGCUUGAGAGCAUCUUCGGAUGCAGAGGCGGCAGCCUUCGGUGGCGCUAUAGAGCCAACGUUCUCAGCUAUGACACGCAAAACGCGUGCUCCGUUGAAUGGAGUUUAUCAUG [C8A U9G A12C A29U A30U G88U C93A A107G]
The “polymerase ribozyme fitness (log ratio)” value of the first is higher: -3.96 for the first, ≤ -4.2 for the second.

GGAUCUUGUCGAUCUAACAAAAAAGACAGAUCUGCCACAAAGCUUGAGAUCAUCUUCGGAUGCAGAGGCGGCAGCCUUCGGUGGUGCGAUAGCGCCAACGUUCUCAACUAUGACACGCAAAACGAGUGCUCCGUUGAAUGGAGUUUAUCAUG [C8G A29G G50U C85U C125A] and GGAUCUUAUCGAGCUAACAAAAAAGACAAUUCUGCCACAAAGCUUGAGAGCAUCUUCGGAUGCAGAGGCGGCAGCCUUCGGAGGCGCGAUAGCGCCAACGGUCUCAACUAUGACACGCAAAACGCGUGCUCCGUUGAAUGGAGUUUAUCAUG [C8A U13G A30U U82A U101G] cannot be ordered by “polymerase ribozyme fitness (log ratio)” value: ≤ -4.2 for the first, ≤ -4.2 for the second.

GGAUCUUGUCGAUCUAACAAAAGAGACAAAUCUGCCACAGAGCUUGAGAGCAUCUUCGGAUGCAGACGCGGCAGCCUUCGGUGGCGCGAUAGCGCCAAUGUGCUCAACUAUGACACGCAAAACGCGCGCUCCGUUGAAUGGACUUUAUCAUG [C8G A23G A40G G67C C99U U102G U127C G143C] and GGAUCUUAUCGAUCCAACAAAAAAGACAAAUCUGCCACAAAGCUUGAGAGCAUCUUCGGAUGCAGAGGCGGCAGACUUCGGUGGCGCGAUAGCGCCAACGUUCUCAACCAUGACACGCAAAACGCGUGCUCCGUUGAAUGGAGUUUAUCAUG [C8A U15C C75A U109C] cannot be ordered by “polymerase ribozyme fitness (log ratio)” value: ≤ -4.2 for the first, ≤ -4.2 for the second.

Going from GGAUCUUAUCGAUCUAACAAAAAAGACAAAUCUGCCACAAAGCUUGAGAUCAUCUUCGGAUGCAGAGGCGGCAGCUUUCGGUAGCGCGAUAGCGCCAACGUUCUCAACUAUGACAGGCAAAACGCGUGCUACGUUGAAUGGAGUCUAUCAUG [C8A G50U C76U G83A C116G C131A U145C] to GGAUCUUAUCGAUCUAACAAAAAAGACAAAUCUGCCACAAAGCUUGAGAGCAUCUUCGGAUGCAGAGGCGGCAGCCUUCGGUGGCUCGAUAGCGCCAACGUUCUCAACUAUGACACGCAAAACGCGUGCUCCGUUGAAUGGAGUUUAUCAUG [C8A G86U], the “polymerase ribozyme fitness (log ratio)” value rises from ≤ -4.2 to -3.72.

Going from GGAUCUUAUCGAUCUAACAAAAAAGACAAAUCUGCCACAAAGCUUGAGAGCAUCUUCGGAUGCAGAGGCGGCAGCCUUCGGUGGCGCGAUAGCCCCAACGUUCUCAACUAUGACACGCAAAACGCGUGCUCCGUUGAAUGGAGUUUAUCAUG [C8A G94C] to GGAUCUUGUCGAUCUAACAAAAAAGACAUAUCUGCCACAAAGCUUGAGAGCAUCUUCGGAUGCAGAGGCGGCAGCCUUCGGUGGCGCGAUAGCGCCAACGUUCUCAACUAUGACACGCAAAACGCGUGCUCCGUUGAAUGGAGUUUAUCAUG [C8G A29U], the “polymerase ribozyme fitness (log ratio)” value falls from -3.7 to -4.04.

GGAUCUUAUCGAUCUAACAAAAAAGACAAAUCUGCCACAAAGCUUGAGAGCAUCUUCGGAUGCAGAGGCCGCAGCCUUCGGUGGCGCGGUAGCCCCAACGUUCUCAACUAUGACAAGCAAAACGCGUGCUCCGUUGGAUGGAGUUUAUCAUG [C8A G70C A89G G94C C116A A137G] and GGAUCUUAUCGAUCGAACAAAAAAGACAAAUCUGCCACAAAGCUUGAGAGCAUCAUCGGAUGCAGAGGCGGCUGCCUUCGGUGGCGCGAUGGCGCCAACGUUCUCAACUAUGACACGCAAAACGCGUGCUCCGUUGAAUAGAGUUUAUCAUG [C8A U15G U55A A73U A91G G140A] cannot be ordered by “polymerase ribozyme fitness (log ratio)” value: ≤ -4.2 for the first, ≤ -4.2 for the second.

GGAUCUUAUCGAUCUAACAAAAAAGACAAAUCUGCCACAAAGCUUGAGAGCAUCUUCGGAUGCAGAGGCGGCAGCCUUCGGUGGCGCGAUAGCGCCAACGUUCUCAACUAUGACACGCAAAACGCGUGCUCCGUUGAAUGAAGUUUAUCAUG [C8A G141A] and GGAUCUUAUCGAUCUAACAAAAAAGACAAAUCUGCCACAAAGCUUGAGAGCAUCAUCGGAUGCAGAGGCGGCAGCCUUCGGUGGCGCGAUAGCGCCAACGUUCUCAACUAUGACACGCAAAACGCGUGCUCCGUUGAAUGGAGUUUAUCAUG [C8A U55A] are within 0.2 log units of each other in “polymerase ribozyme fitness (log ratio)” value: -3.13 for the first, -3.18 for the second.

GGAUCUUAUCGAUCUAACAAAAAAGACAAAUCUGCCACAAAGCUUGAGAGCAUCUUCGGAUGCAGAGGCGGCAGCCUUCGGUGGCGCGAUAGCAACAACGUUCUCAACUAUGACACGCAAAACGCGUGCUCCGUUGAAUGGAGUUUAUCAUG [C8A G94A C95A] and GGAUCUUAUCGAUCAAACUAAAAAGACUAUUCUGCCAACUAGCUUGAGAGCAUCUUCGUAUGCAGAGGCGGCAGCCUUCGGUGGCGCGAUAGCGCCAAGGUUCUCAUCUAUGAUACGCAAAACGCGUGCUCCGUUGAAUGGAGUUUAUCAUG [C8A U15A A19U A28U A30U C38A A39C A40U G59U C99G A107U C114U] cannot be ordered by “polymerase ribozyme fitness (log ratio)” value: ≤ -4.2 for the first, ≤ -4.2 for the second.

With GGAUCUUAUCGAUCUAACAAAAAAGACAAAUCUGCCACAAAGCUUGAGAGCAUCUUCGGAUGCAGAGGCGGCAGCCUUCGGUCGGGCGAUAGCGCCAACGUUCUCAACUAUGACACGCAAAACGCGUGCUCCGUUGAAUCGAGUUUAUCCUG [C8A G83C C85G G140C A150C] the “polymerase ribozyme fitness (log ratio)” value was ≤ -4.2.
